What was measured:
[1] = target: SLPI binding sites on HuT78 cells (human T cell line) (human); assay: 125I-SLPI saturation binding, intact HuT78 cells, *SLPI at 40 pM
[2] = target: SLPI binding sites on U937 cells (human monocyte cell line; intact cells, PMA-induced cells or plasma membranes) (human); assay: competition with 125I-SLPI, intact U937 cells, cold SLPI at 84 nM
[3] = target: SLPI binding sites on U937 cells (human monocyte cell line; intact cells, PMA-induced cells or plasma membranes) (human); assay: competition with 125I-SLPI, intact U937 cells, cold SLPI at 2.6 nM
[4] = target: SLPI binding sites on U937 cells (human monocyte cell line; intact cells, PMA-induced cells or plasma membranes) (human); assay: Scatchard plot of 125I-SLPI saturation binding, intact U937 cells
[5] = target: SLPI binding sites on U937 cells (human monocyte cell line; intact cells, PMA-induced cells or plasma membranes) (human); assay: competition with 125I-SLPI, intact U937 cells, cold SLPI at 2750 nM
[6] = target: SLPI binding sites on U937 cells (human monocyte cell line; intact cells, PMA-induced cells or plasma membranes) (human); assay: competition with 125I-SLPI, intact U937 cells, competitor at 270 nM
[7] = target: SLPI binding sites on U937 cells (human monocyte cell line; intact cells, PMA-induced cells or plasma membranes) (human); assay: competition with 125I-SLPI, intact U937 cells, competitor at 860 nM
[8] = target: SLPI binding sites on U937 cells (human monocyte cell line; intact cells, PMA-induced cells or plasma membranes) (human); assay: 125I-SLPI saturation binding, U937 cells minus PMA, *SLPI at 2560 pM
[9] = target: SLPI binding sites on U937 cells (human monocyte cell line; intact cells, PMA-induced cells or plasma membranes) (human); assay: 125I-SLPI saturation binding, U937 cells plus PMA, *SLPI at 2,560 pM
[10] = target: SLPI binding sites on HuT78 cells (human T cell line) (human); assay: competition with 125I-SLPI, intact HuT78 cells, cold SLPI at 0.80 nM
[11] = target: SLPI binding sites on U937 cells (human monocyte cell line; intact cells, PMA-induced cells or plasma membranes) (human); assay: 125I-SLPI saturation binding, U937 cells plus PMA, *SLPI at 10,240 pM
[12] = target: SLPI binding sites on U937 cells (human monocyte cell line; intact cells, PMA-induced cells or plasma membranes) (human); assay: competition with 125I-SLPI, U937 plasma membranes, competitor at 0 nM
[13] = target: SLPI binding sites on U937 cells (human monocyte cell line; intact cells, PMA-induced cells or plasma membranes) (human); assay: Scatchard plot of 125I-SLPI saturation binding, non-induced U937 cells
[14] = target: SLPI binding sites on U937 cells (human monocyte cell line; intact cells, PMA-induced cells or plasma membranes) (human); assay: competition with 125I-SLPI, U937 plasma membranes, competitor at 2.56 nM
[15] = target: SLPI binding sites on U937 cells (human monocyte cell line; intact cells, PMA-induced cells or plasma membranes) (human); assay: competition with 125I-SLPI, U937 plasma membranes, competitor at 2750 nM

Chain of serine leukocyte protease inhibitor (SLPI) (P03973 26-132): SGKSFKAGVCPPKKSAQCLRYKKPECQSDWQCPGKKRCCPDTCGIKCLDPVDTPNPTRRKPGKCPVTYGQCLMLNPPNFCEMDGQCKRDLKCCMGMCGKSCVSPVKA

specific cpm [1]: 0 cpm
% *SLPI BOUND [2]: 3.5%
% *SLPI BOUND [3]: 55%
Kd [4]: 2 nM
% *SLPI BOUND [5]: 0.5%
% *SLPI BOUND [6]: 5%
% *SLPI BOUND [7]: 4%
bound *SLPI (pM) [8]: 593 pM
bound per free [8]: 0.301
sites bound per cell (sites per cell) [8]: 35700
specific cpm [8]: 6340 cpm
bound pM [9]: 215 pM
bound per free [9]: 0.092
sites bound per cell (sites per cell) [9]: 12900
specific cpm [9]: 2300 cpm
% *SLPI BOUND [10]: 62%
bound pM [11]: 274 pM
bound per free [11]: 0.028
sites bound per cell (sites per cell) [11]: 16500
specific cpm [11]: 2930 cpm
CPM *SLPI BOUND [12]: 18700 cpm
Kd [13]: 1.1 nM
CPM *SLPI BOUND [14]: 11000 cpm
CPM *SLPI BOUND [15]: 1680 cpm
Substance: serine leukocyte protease inhibitor (SLPI) (from UniProt P03973 26-132)

Source: patent publication US6869925 (Amgen, dated 2005)
